Each block holds one binder with its values, some of them ahead of it. Bridges are numbered along the chain shown (N, C = ends). Where no end group is shown, it is not given here.
B2: bone morphogenetic protein-7 (ligand, UniProt P18075 293-431, looked up)
chain: STGSKQRSQNRSKTPKNQEALRMANVAENSSSDQRQACKKHELYVSFRDLGWQDWIIAPEGYAAYYCEGECAFPLNSYMNATNHAIVQTLVHFINPETVPKPCCAPTQLNAISVLYFDDSSNVILKKYRNMVVRACGCH
modifications: radio-iodinated (125I, lactoperoxidase method) when used as tracer; glycoprotein
notes: also called BMP-7

What was measured:
[1] = biological target: B2; assay: Scatchard analysis of BMP-7 binding to purified daf-4 ECD
[2] = biological target: T1, BMP-7 receptor of ROS cell plasma membrane fraction (ROS cell type II BMP receptor) (rat); assay: radioligand binding of 125I-BMP-7 to ROS cell receptor-enriched plasma membrane fraction
T1 construct: whole, on cells; Used as a plasma membrane fraction of ROS cells, not as a purified protein; also called BMP-7 receptor-enriched plasma membrane fraction of ROS cells; ROS cell receptor
Description: Receptors from ROS cells are obtained by a procedure previously described (Dattatreyamurty, B., et al., (1986) J. Biol. Chem. 261.). […] In a typical assay, fixed amounts of ¹²⁵I-labeled sol. […] The assay incubations were carried out in a reaction volume of 300 μl with shaking for 22 hrs. at 4° C. […] The supernatants were aspirated and pellets washed before counting in a gamma counter (Packard Instr. Downers Grove, Ill.).

[3] = biological target: T1, BMP-7 receptor of ROS cell plasma …; assay: radioligand receptor assay, displacement of 125I-BMP-7 from ROS cell plasma membranes

Ka [1]: 2.96e+10 M⁻¹
B1: extracellular domain (ECD) of the type II receptor daf-4, hexa-histidine tagged (receptor)
chain: WANTLVSKVAQSNGTGTIKVSAPAKPTLRRMDNEEDEVISIECVYYDEMECEKSGDCEITKKTCYSEAHLKAVGCLAVFGLPTQEINSTEPYLKVDKPQYKSLGCMPYQHADSMNCENESSCRQGRSFRGGIGMCCCSTNNCNMPDLIEMVNPSLKKDSDNSALLWASTPSNMDLESLDKSSSRASQPELAPEDPEDVEHHHHHH
modifications: heavily glycosylated
notes: Expressed in CHO cells; also called daf-4 ECD; ECD of daf-4 receptor

Binder: B2
Ka [2]: 4.38e+09 M⁻¹

IC50 [3]: 10 µM
B3: F2-3 (peptide)
peptide: CYFDDSSNVICKKYRS
modifications: disulfide 1-11
notes: also called Peptide F2-3; BMP test agent F2-3
